Key:
[1] = target: T1, C-terminally truncated Mycobacterium smegmatis MmpL3 (ΔC Ms-MmpL3, aa 1–773) (M. smegmatis), A0QP27; experiment: AUC; sedimentation velocity of the SEC peaks of protein in SMALPs; 0.1-0.5 mg/mL, 20 mM Tris HCl, 150 mM NaCl, pH 8.0, 20 °C; c(s) distribution; the mass includes lipid and polymer; settings: remark: other sources report otherwise
T1 chain: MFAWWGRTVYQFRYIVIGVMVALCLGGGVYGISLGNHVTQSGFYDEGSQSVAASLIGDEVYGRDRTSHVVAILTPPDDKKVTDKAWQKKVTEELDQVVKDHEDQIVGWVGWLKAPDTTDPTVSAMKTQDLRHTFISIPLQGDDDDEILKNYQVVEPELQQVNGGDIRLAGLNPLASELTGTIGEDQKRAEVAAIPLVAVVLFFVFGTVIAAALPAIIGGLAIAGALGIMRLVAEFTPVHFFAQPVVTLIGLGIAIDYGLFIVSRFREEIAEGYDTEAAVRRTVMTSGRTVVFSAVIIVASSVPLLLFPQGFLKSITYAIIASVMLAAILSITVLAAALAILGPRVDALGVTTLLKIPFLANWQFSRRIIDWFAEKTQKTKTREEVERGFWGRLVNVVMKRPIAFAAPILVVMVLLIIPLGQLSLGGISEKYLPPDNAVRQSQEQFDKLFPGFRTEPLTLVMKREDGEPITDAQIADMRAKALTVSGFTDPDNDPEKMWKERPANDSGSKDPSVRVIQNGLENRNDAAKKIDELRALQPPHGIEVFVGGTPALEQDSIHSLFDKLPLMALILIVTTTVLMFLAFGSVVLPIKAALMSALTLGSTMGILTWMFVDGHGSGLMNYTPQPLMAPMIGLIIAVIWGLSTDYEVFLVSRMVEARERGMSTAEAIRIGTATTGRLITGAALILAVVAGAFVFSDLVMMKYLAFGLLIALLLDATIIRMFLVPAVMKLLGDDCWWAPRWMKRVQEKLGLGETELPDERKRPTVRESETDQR

[2] = target: T1, C-terminally truncated Mycobacterium …; experiment: native MS; LILBID-MS of the high sucrose percentage (HSP, 16-18% sucrose) fraction of POPC/MSP1E3D1 nanodiscs; 20 mM Tris HCl pH 8.0; negative mode; low and high laser energies; settings: remark: other sources report otherwise

B1: C-terminally truncated Mycobacterium smegmatis MmpL3 (ΔC Ms-MmpL3, aa 1–773), A0QP27 1-773 (domain or fragment)
chain: MFAWWGRTVYQFRYIVIGVMVALCLGGGVYGISLGNHVTQSGFYDEGSQSVAASLIGDEVYGRDRTSHVVAILTPPDDKKVTDKAWQKKVTEELDQVVKDHEDQIVGWVGWLKAPDTTDPTVSAMKTQDLRHTFISIPLQGDDDDEILKNYQVVEPELQQVNGGDIRLAGLNPLASELTGTIGEDQKRAEVAAIPLVAVVLFFVFGTVIAAALPAIIGGLAIAGALGIMRLVAEFTPVHFFAQPVVTLIGLGIAIDYGLFIVSRFREEIAEGYDTEAAVRRTVMTSGRTVVFSAVIIVASSVPLLLFPQGFLKSITYAIIASVMLAAILSITVLAAALAILGPRVDALGVTTLLKIPFLANWQFSRRIIDWFAEKTQKTKTREEVERGFWGRLVNVVMKRPIAFAAPILVVMVLLIIPLGQLSLGGISEKYLPPDNAVRQSQEQFDKLFPGFRTEPLTLVMKREDGEPITDAQIADMRAKALTVSGFTDPDNDPEKMWKERPANDSGSKDPSVRVIQNGLENRNDAAKKIDELRALQPPHGIEVFVGGTPALEQDSIHSLFDKLPLMALILIVTTTVLMFLAFGSVVLPIKAALMSALTLGSTMGILTWMFVDGHGSGLMNYTPQPLMAPMIGLIIAVIWGLSTDYEVFLVSRMVEARERGMSTAEAIRIGTATTGRLITGAALILAVVAGAFVFSDLVMMKYLAFGLLIALLLDATIIRMFLVPAVMKLLGDDCWWAPRWMKRVQEKLGLGETELPDERKRPTVRESETDQR
[1]
  stoichiometry N: 2
[2]
  stoichiometry N: 2
